Test [1] deals with T1, VEGFR-2/NP-1 co-receptor complex (cells co-expressing hVEGFR-2 and hNP-1) (human, UniProt P35968 20-1356; O14786 22-923).
T1 construct: whole, on cells; All numbers printed for cells co-expressing both receptors are put on this molecule; also called R2 + NP1 Cells; VEGFR-2/NP-1 complex
In words: 125I-VEGF165 affinity labeling of HUVEC, VEGFR-2 immunoprecipitation, 100 µM peptide (FIG. 10A). The method, then:
(§1) The crosslinker is removed with a single, ice cold, large volume wash (15 ml DPBS, Gibco). The cells are then lysed using RIP buffer (20 mM Tris HCl, pH 7.4; 100 mM NaCl; 1 mM EDTA; 10 mM NaI; 0.5% IGEPAL CA-630; 0.5% Na-deoxycholate; 1% BSA; all from Sigma). The lysate is then transferred to 1.5 ml conical tubes and centrifuged at 13,000×g to pellet the cellular debris. […] The precipitation tube is then incubated overnight at 4° C. on a nurator. The following morning the beads are washed three times in TNEN buffer (20 mM Tris-HCl pH 7.4; 100 mM NaCl; and 0.5% IGEPAL CA-630, all from Sigma), and heated for two minutes at 100° C. in 25 μl of 1×sample loading dye (5′-3′). The samples are then centrifuged to separate the beads from the sample buffer, and 20 μl of the sample buffer is loaded onto 6% SDS-PAGE gels (Novex). The gels are run at 35 mA for approximately 70 minutes, and then equilibrated in a drying buffer (10% acetic acid; 10% methanol, 80% H₂O) for 15 minutes and dried on a gel drier. The dried gels are then exposed to a phosphor screen overnight and developed using a Storm system (Molecular Dynamics).
(§2) Further amino terminal deletions were conducted.

Test [2] deals with T1, VEGFR-2/NP-1 co-receptor complex (cells …). In words: 125I-VEGF165 affinity labeling of HUVEC, VEGFR-2 immunoprecipitation, 100 µM peptide (FIG. 10B). The procedure:
as §1, §2

For test [3], the target named is T2, human Neuropilin-1 (hNP-1) (human, UniProt O14786 22-923).
T2 construct: whole, on cells; also called hNeuropilin-1
The experiment in a line: 125I-VEGF165 competition, whole COS-1 cells. The procedure:
(§3) Cells are plated the day before experimentation at 200,000 cells per well in twelve well tissue culture plates (VWR) in 1 ml of growth medium specific for each cell type. On the day of experimentation, the cells were pre-equilibrated at 4° C. for 30 to 60 minutes in binding buffer (0.2% BSA, Sigma; 25 mM Hepes, Gibco; MEM, Gibco). […] The binding reaction is allowed to reach equilibrium for four hours at 4° C. with gentle agitation.
(§4) Unbound ligand is then removed by quickly washing three times with 5 ml ice cold BSA-free binding buffer (MEM, Gibco, 25 mM Hepes, Gibco). Cells are lysed by the addition of 250 μl of RIPS Buffer (previously described), and the lysed cells are transferred to 12×75 mm test tubes and counted using a gamma counter. Generation of competition curves and IC₅₀ values are performed using the Prism software package (Graphpad Software Inc., San Diego, Calif.).

The target in test [4] is T3, human vascular endothelial growth factor receptor-2 (hVEGFR-2) (human, UniProt P35968 20-1356).
T3 construct: whole, on cells; also called flk-1; FLK-1
The experiment in a line: 125I-VEGF165 (287 pM) competition by cold ligand, COS-1 cells overexpressing VEGFR-2. The procedure:
The cells were then rinsed three times with ice cold binding buffer to remove unbound ligand, lysed, and transferred to 12×75 mm test tubes for counting on a gamma counter. The IC₅₀ values were calculated by fitting the data to a four parameter logistic equation (Prism software).

Test [5] concerns the target T3, human vascular endothelial growth …. The experiment in a line: cell-based or functional assay.
The target is the same in test [6]. The experiment in a line: cell-based or functional assay. The source holds these as a separate data set.
The target is the same in test [7]. The experiment in a line: 125I-VEGF165 competition, whole COS-1 cells. The procedure: as §3, §4
In test [8] the target is T1, VEGFR-2/NP-1 co-receptor complex (cells …). In words: 125I-VEGF165 competition on COS-1 cells and affinity labeling of HUVEC.
For test [9] the target is unchanged. The experiment in a line: 125I-VEGF165 competition, stable Balb/C 3T3 A31 cells.
In test [10] the target is T2, human Neuropilin-1 (hNP-1). The description is as above.

T3 sequence (P35968 20-1356): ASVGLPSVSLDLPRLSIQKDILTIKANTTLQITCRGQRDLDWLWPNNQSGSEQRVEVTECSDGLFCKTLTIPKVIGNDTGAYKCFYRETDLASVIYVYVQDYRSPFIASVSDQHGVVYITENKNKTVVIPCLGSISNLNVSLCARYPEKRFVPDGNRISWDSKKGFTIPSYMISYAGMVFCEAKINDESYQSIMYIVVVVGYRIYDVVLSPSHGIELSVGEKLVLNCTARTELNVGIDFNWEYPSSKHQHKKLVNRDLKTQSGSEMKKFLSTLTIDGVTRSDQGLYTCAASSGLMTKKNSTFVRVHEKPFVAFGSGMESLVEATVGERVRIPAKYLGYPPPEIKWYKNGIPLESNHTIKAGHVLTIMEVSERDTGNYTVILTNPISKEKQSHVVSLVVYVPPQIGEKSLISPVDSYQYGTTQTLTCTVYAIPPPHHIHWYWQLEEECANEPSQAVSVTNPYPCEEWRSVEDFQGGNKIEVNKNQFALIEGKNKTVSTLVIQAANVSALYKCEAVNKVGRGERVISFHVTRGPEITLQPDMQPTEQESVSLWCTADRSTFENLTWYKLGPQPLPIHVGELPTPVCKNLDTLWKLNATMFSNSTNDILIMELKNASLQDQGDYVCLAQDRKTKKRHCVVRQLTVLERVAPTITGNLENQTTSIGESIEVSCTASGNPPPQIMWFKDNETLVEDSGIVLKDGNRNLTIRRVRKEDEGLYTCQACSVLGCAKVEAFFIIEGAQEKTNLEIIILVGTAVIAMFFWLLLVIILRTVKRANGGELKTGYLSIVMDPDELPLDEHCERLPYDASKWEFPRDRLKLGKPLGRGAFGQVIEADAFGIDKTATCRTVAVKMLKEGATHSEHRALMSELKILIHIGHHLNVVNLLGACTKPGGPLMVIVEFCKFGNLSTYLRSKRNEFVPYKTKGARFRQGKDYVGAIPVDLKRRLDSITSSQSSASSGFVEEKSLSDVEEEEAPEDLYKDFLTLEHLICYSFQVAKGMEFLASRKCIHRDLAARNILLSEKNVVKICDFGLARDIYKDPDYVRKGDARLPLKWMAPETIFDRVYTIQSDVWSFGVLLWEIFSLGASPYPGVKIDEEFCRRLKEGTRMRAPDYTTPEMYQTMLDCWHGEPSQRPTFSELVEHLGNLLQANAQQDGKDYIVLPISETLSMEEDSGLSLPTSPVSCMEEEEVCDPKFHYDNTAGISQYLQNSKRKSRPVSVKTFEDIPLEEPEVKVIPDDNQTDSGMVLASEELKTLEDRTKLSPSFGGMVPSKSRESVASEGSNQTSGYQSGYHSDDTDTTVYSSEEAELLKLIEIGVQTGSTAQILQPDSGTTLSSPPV
T1 sequence (P35968 20-1356, chain 1 of 2): as the sequence (P35968 20-1356) above
T1 sequence (O14786 22-923, chain 2 of 2): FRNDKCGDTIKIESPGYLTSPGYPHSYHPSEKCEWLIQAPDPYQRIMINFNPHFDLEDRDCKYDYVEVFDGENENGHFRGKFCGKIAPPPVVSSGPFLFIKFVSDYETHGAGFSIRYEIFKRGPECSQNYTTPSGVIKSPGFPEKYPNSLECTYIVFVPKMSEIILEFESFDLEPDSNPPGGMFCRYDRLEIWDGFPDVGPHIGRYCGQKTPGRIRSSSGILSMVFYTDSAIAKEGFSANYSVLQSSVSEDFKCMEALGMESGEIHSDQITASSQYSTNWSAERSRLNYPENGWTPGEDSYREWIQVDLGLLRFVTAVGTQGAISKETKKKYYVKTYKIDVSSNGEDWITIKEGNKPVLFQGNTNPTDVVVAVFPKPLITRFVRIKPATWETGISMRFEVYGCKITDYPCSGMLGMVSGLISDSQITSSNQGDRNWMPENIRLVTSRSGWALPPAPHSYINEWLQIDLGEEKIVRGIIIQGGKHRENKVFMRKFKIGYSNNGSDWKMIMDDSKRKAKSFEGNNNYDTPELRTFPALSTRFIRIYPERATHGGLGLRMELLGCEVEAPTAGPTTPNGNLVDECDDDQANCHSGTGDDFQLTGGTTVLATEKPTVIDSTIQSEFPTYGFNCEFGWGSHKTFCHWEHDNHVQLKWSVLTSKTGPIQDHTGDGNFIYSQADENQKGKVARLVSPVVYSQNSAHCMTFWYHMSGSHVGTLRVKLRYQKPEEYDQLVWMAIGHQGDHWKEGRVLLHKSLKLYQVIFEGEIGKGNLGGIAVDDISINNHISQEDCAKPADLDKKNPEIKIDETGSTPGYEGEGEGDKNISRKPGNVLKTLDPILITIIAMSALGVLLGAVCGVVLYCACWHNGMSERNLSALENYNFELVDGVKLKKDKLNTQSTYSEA
T2 sequence (O14786 22-923): as the sequence (O14786 22-923, chain 2 of 2) above

In the case of RRREKQRPCDKPRR (also called PGV8-8N) [P6V8-8N], the binding result in test [1] is given as “binds”.

KGRGKRRREKQRPSDKPR [P6V8-3NCS-1C]: the binding result in test [2] is “binds”.

B1: VEGF121 (ligand, UniProt P15692-9 27-147, looked up)
chain: APMAEGGGQNHHEVVKFMDVYQRSYCHPIETLVDIFQEYPDEIEYIFKPSCVPLMRCGGCCNDEGLECVPTEESNITMQIMRIKPHQGQHIGEMSFLQHNKCECRPKKDRARQEKCDKPRR
The IC50 is the midpoint of a concentration-inhibition curve. A high value points to a need for much substance. For the molecule B1, the binding result in [3] is “no binding”. The molecule also yielded an IC50 in [4] of 0.312 nM. Besides, in test [5], the “EC50 of VEGF121, VEGFR-2 anti-phosphotyrosine assay in HUVEC, no peptide added” value was 2.45 nM; the “EC50 of VEGF121, VEGFR-2 anti-phosphotyrosine assay in HUVEC, with 100 µM P6” value came to 2.4 nM; the “EC50 of VEGF121, VEGFR-2 anti-phosphotyrosine assay in HUVEC, with 100 µM P6V8” value stood at 4.07 nM; the “EC50 of VEGF121, VEGFR-2 anti-phosphotyrosine assay in HUVEC, with 100 µM P6V8-3N” value was found to be 1.17 nM. In addition, in test [5], the “EC50 of VEGF121, VEGFR-2 anti-phosphotyrosine assay in HUVEC, with 100 µM P6V8-3N (second row with this label)” value worked out at 1.62 nM; the “EC50 of VEGF121, VEGFR-2 anti-phosphotyrosine assay in HUVEC, with 100 µM P6V8-3NCS” value is 4.57 nM; the “EC50 of VEGF121, VEGFR-2 anti-phosphotyrosine assay in HUVEC, with 100 µM P6V8-3NCS1-7CC” value is 3.31 nM; the “EC50 of VEGF121, VEGFR-2 anti-phosphotyrosine assay in HUVEC, with 100 µM P6V8-3NCSA7, 8, 10, 12” value was determined as 17.8 nM. Moreover, in test [5], the “EC50 of VEGF121, VEGFR-2 anti-phosphotyrosine assay in HUVEC, with 100 µM P6V8-3NCSC13C18” value is 2.09 nM; the “Log EC50 of VEGF121, VEGFR-2 anti-phosphotyrosine assay in HUVEC, no peptide added” value is -8.61; the “Log EC50 of VEGF121, VEGFR-2 anti-phosphotyrosine assay in HUVEC, with 100 µM P6” value is -8.62; the “Log EC50 of VEGF121, VEGFR-2 anti-phosphotyrosine assay in HUVEC, with 100 µM P6V8” value is -8.39. Also, in test [5], the “Log EC50 of VEGF121, VEGFR-2 anti-phosphotyrosine assay in HUVEC, with 100 µM P6V8-3N” value is -8.93; the “Log EC50 of VEGF121, VEGFR-2 anti-phosphotyrosine assay in HUVEC, with 100 µM P6V8-3N (second row with this label)” value was -8.79; the “Log EC50 of VEGF121, VEGFR-2 anti-phosphotyrosine assay in HUVEC, with 100 µM P6V8-3NCS” value was -8.34; the “Log EC50 of VEGF121, VEGFR-2 anti-phosphotyrosine assay in HUVEC, with 100 µM P6V8-3NCS1-7CC” value was -8.48. Moreover, in [5], the “Log EC50 of VEGF121, VEGFR-2 anti-phosphotyrosine assay in HUVEC, with 100 µM P6V8-3NCSA7, 8, 10, 12” value is -7.75 and the “Log EC50 of VEGF121, VEGFR-2 anti-phosphotyrosine assay in HUVEC, with 100 µM P6V8-3NCSC13C18” value is -8.68. Besides, in test [6], the “EC50 of VEGF121 for VEGFR-2 phosphorylation in HUVEC in the presence of 100 µM P6 (FIG. 8)” value is 2.38 nM; the “EC50 of VEGF121 for VEGFR-2 phosphorylation in HUVEC in the presence of 100 µM P6V8 (FIG. 8)” value was found to be 4.04 nM; the “EC50 of VEGF121 for VEGFR-2 phosphorylation in HUVEC with antagonist P6V8-3NCSC13C18 (FIG. 12)” value came out at 2.08 nM; the “EC50 of VEGF121 for VEGFR-2 phosphorylation in HUVEC, no peptide (FIG. 8)” value worked out at 1.84 nM. Moreover, in test [6], the “EC50 of VEGF121 for VEGFR-2 phosphorylation in HUVEC, no peptide (FIG. 12)” value stood at 2.75 nM and the “EC50 of VEGF121 for VEGFR-2 phosphorylation in HUVEC, no peptide (FIG. 13)” value was determined as 3.38 nM.

As to RREKQRPCDKPRR [P6V8-9N], the results for the binding result in [7] and in [8] were “no binding” and “binds”, respectively.

Regarding RRPKGRGKRRREAAAPSDKPRR (also called NP-1 selective peptide) [AS-4], in [7], the binding result was “no binding”. Moreover, the IC50 in test [9] was determined as 300 nM; in test [10], 17.8 nM.

The values are drawn from patent publication US20030186868A1 (Regeneron, published 2003).
